Data: patent publication US6323395A, “Nucleotide sequences of maize and soybean β-Ketoacyl-Acyl Carrier Protein Synthase II and their use in the regulation of fatty acid content of oil” (Dow AgroSciences LLC, priority 1998, dated 2001)
Like-named read-outs stand apart in the source and are kept apart here.

Assays:
[1] = tested on: KAS II (soybean and maize KAS II expressed in E. coli); test: Synthase assay with cerulenin, condensation of [2-14C]malonyl-CoA with acyl-ACP; assay type: biochemical; conditions: cerulenin 50 μM
Description: Malonyl CoA-ACP transacylase, hereafter MTA, was purified from E. coli as described by Alberts et al. (1969) Methods in Enzymology, 14:50-53. Transacylase reactions were performed in 100 μL of reaction mixture [100 mM KH2 PO4, pH 6.5, 100 μM ACP, 100 μM malonyl CoA, 10 nCi [2-^4 C] malonyl CoA (43.1 Ci/mol), and 2 mM dithiothreitol (DTT). ACP was incubated with an equal volume of 20 mM DTT for 15 min before being added to the reaction mixture. Reactions were started by adding 10 μL of either enzyme alone or enzyme that had been incubated for 15 min with an inhibitor and allowed to proceed for 5 min at 23° C. […] Pellets were washed 3× with 5% perchloric acid before being resuspended in 500 µL KH2 PO4 buffer and counted using scintillation. KAS II activity was measured by modifying the method of Garwin et al. (1980) J. Biological Chem. 255:11949-11956. […] The toluene layer (300 μL) was added to 5 mL Aquasol (NEN, Boston, Mass.) and incorporated [2-^4 ] malonyl CoA was determined by scintillation counting.
For enzymatic analysis of E coli expressed soybean and maize KAS II, substrates were made as follows: ACP (Sigma Chemical Co.) was further purified by three cycles of precipitation at pH 4.0 using 10% (v/v) acetic acid followed by resolubilization in 50 mM Tris-HCl, pH 8.0. […] Incorporated malonyl-CoA was extracted into toluene prior to quantitating by liquid scintillation counting. […]

KAS I = test: as above; assay type: biochemical; conditions: cerulenin at concentrations of 5 μM or greater
[2] = target: C16:0-ACP (palmitoyl-acyl carrier protein) made from bought ACP (Escherichia coli (strain K12)) (UniProt P0A6A8)
[3] = tested on: maize β-Ketoacyl-Acyl Carrier Protein Synthase II (KAS II), purified from seed; test: KAS II activity assay, Km from double reciprocal plots; assay type: biochemical; conditions: cerulenin-Sepharose fraction, substrate not named, condensing activity towards C16:0-ACP
Description: (§1) Malonyl CoA-ACP transacylase, hereafter MTA, was purified from E. coli as described by Alberts et al. (1969) Methods in Enzymology, 14:50-53. Transacylase reactions were performed in 100 μL of reaction mixture [100 mM KH2 PO4, pH 6.5, 100 μM ACP, 100 μM malonyl CoA, 10 nCi [2-^4 C] malonyl CoA (43.1 Ci/mol), and 2 mM dithiothreitol (DTT). ACP was incubated with an equal volume of 20 mM DTT for 15 min before being added to the reaction mixture. Reactions were started by adding 10 μL of either enzyme alone or enzyme that had been incubated for 15 min with an inhibitor and allowed to proceed for 5 min at 23° C. Reactions, which were terminated by adding 400 μL of ice cold 5% (v/v) perchloric acid, were then placed on ice for 20 min before being centrifuged for 5 min at 14,000×g. Pellets were washed 3× with 5% perchloric acid before being resuspended in 500 µL KH2 PO4 buffer and counted using scintillation. KAS II activity was measured by modifying the method of Garwin et al. (1980) J. Biological Chem. 255:11949-11956. […] The toluene layer (300 μL) was added to 5 mL Aquasol (NEN, Boston, Mass.) and incorporated [2-^4 ] malonyl CoA was determined by scintillation counting. […]

[4] = tested on: soybean β-Ketoacyl-Acyl Carrier Protein Synthase II (KAS II), purified from seed; test: as above; assay type: biochemical; conditions: cerulenin-Sepharose fraction, substrate not named, condensing activity towards C16:0-ACP
Description: as §1

[5] = target: C10:0-ACP (decanoic acid acyl-acyl carrier protein) made from bought ACP (Escherichia coli (strain K12)) (UniProt P0A6A8)
[6] = target: C16:0-ACP (palmitoyl-acyl carrier protein) made from bought ACP (Escherichia coli (strain K12)) (UniProt P0A6A8); remark: listed apart in the source
Target sequence in this assay (P0A6A8 2-78 limits assumed): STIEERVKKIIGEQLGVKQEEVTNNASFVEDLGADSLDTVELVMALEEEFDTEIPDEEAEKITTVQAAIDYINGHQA

[7] = target: C10:0-ACP (decanoic acid acyl-acyl carrier protein) made from bought ACP (Escherichia coli (strain K12)) (UniProt P0A6A8); remark: listed apart in the source
[8] = target: C16:0-ACP (palmitoyl-acyl carrier protein) made from bought ACP (Escherichia coli (strain K12)) (UniProt P0A6A8); remark: listed apart in the source
Target sequence in this assay (P0A6A8 2-78 limits assumed): as above

[9] = target: the molecule itself; test: gel filtration on Superdex 200: native molecular weight 82,000±5,000 against a subunit size of 46 kDa by SDS-PAGE
Description: The molecular mass of native KAS II was determined by gel filtration using a Superdex 200 column (Pharmacia LKB Biotechnology, Inc.) equilibrated in 25 mM KH_2PO_4 (pH7.0). The column was calibrated using protein standards (BioRAD, Hercules, Calif.), which included blue dextran, thyroglobin (M_r, 670,000), bovine gamma globulin (Mr_r, 158,000), chicken ovalbumin (M_r, 44,000), equine myoglobin (M_r, 17,000), vitamin B-12 (M_r, 1,350).

C10:0-ACP (decanoic acid acyl-acyl carrier protein) made from bought ACP (Escherichia coli (strain K12)), sequence (P0A6A8 2-78 limits assumed): as above

In the case of C/C=C/C/C=C/CCC(=O)[C@H]1O[C@H]1C(N)=O [cerulenin], the “inhibition of KAS II” value [1] is reported as “about 50%” and the “inhibition of KAS I activity” value (KAS I) is reported as “completely inhibits”.

In the case of “soybean β-Ketoacyl-Acyl Carrier Protein Synthase II purified from soybean seed (enzyme)”, the Km [2] is reported as 18 µM.

In the case of palmitoyl-ACP [C16:0-ACP], the Km [3] is reported as 14.1 µM and the Km [4] is reported as 18 µM.

B1: second soybean KAS II expressed in E. coli from pDAB394 (enzyme)
chain: MAVALQPTQEITTIKKPPTKQRRVVVTGLGVVTPLGHEPDIFYNNLLDGASGISEIETFDCAEYPTRIAGEIKSFSTDGWVAPKLSKRMDKFMLYMLTAGKKALVDGGITDDVMDELNKEKCGVLIGSAMGGMKVFNDAIEALRISYKKMKPFCVPFATTNMGSAMLAMDLGWMGPNYSISTACATSNFCILNAANHIIRGEADVMLCGGSDAAIIPIGLGGFVACRALSQRNTDPTKASRPWDINRDGFVMGEGAGVLLLEELEHAKERGATIYAEFLGGSFTCDAYHVTEPRPDGAGVILCIEKALAQSGVSKEDVNYINAHATSTPAGDLKEYQALMHCFGQNPELRVNSTKSMIGHLLGAAGGVAAVATIQAIRTGWVHPNINLENPDNGVDAKVLVGSKKERLDVKAALSNSFGFGGHNSSIIFAPY
Molecule B1 has a synthase activity: condensation of [2-14C]malonyl-CoA with C10:0-ACP to C12:0-ACP (counts per minute per minute) [5] of 890 and a synthase activity: condensation of [2-14C]malonyl-CoA with C16:0-ACP to C18:0-ACP (counts per minute per minute) [6] of 2160.

B2: first soybean KAS II expressed in E. coli from pDAB393 (enzyme)
chain: MAVALQPTQEVTTIKKPPTKQRRVVVTGLGVVTPLGHEPDIFYNNLLDGVSGISEIETFDCAEYPTRIAGEIKSFSTDGWVAPKLSKRMDKFMLYMLTAGKKALVDGGITDDVMDELNKDKCGVLIGSAMGGMKVFNDAIEALRISYKKMNPFCVPFATTNMGSAMLAMDLGWMGPNYSISTACATSNFCILNAANHIIRGEADVMLCGGSDAAIIPIGLGGFVACRALSQRNTDPTKASRPWDINRDGFVMGEGAGVLLLEELEHAKKRGATIYAEFLGGSFTCDAYHVTEPRPDGAGVILCIEKALAQSGVSKEDVNYINAHATSTPAGDLKEYQALMHCFGQNPKLRVNSTKSMIGHLLGAAGAVEAVATIQAIRTGWVHPNINLEKPDNGVDAKVLVGSKKERLDVKAALSNSFGFGGHNSSIIFAPYK
With B2 the synthase activity: condensation of [2-14C]malonyl-CoA with C10:0-ACP to C12:0-ACP (counts per minute per minute) [7] was 207, the synthase activity: condensation of [2-14C]malonyl-CoA with C16:0-ACP to C18:0-ACP (counts per minute per minute) [8] was 1930 and the binding result [9] was “binds”.

B3: maize β-Ketoacyl-Acyl Carrier Protein Synthase II purified from maize seed (enzyme)
chain: MAVALQAERSVIEKKKPDIKQRRVVVTGMGVVTPLGHDPDVFYNNLLDGVSGISEIERFDCSNFPTRIAGEIKSFSTDGWVAPKLAKRMDKFMLYLITAGKKALENGGLTEELRNELDKTRCGVLIGSAMGGMKVFNDAIEALRVSYKKMNPFCVPFATTNMGSAILAMDLGWMGPNYSISTACATSNFCILNAANHIRRGEADVMLCGGSDAPLIPIGLGGFVACRALSQRNSDPTKASRPWDMGRDGFVMGEGAGVLVLEELEHAKERGATIYAEFLGGSFTCDAYHMTEPHPEGRGIALCIEKALADAGVAREEINYVNAHATSTQAGDLKEYEAIVRCFRQNPQLRVNSTKSMTGHLIGAAGGIEAVASIQAIRTGWVHPNLNLENPEDTVDVGVLVGSQKERCEVKVALSNSFGFGGHNSSILFAPFK
B3 showed a Km [2] of 14.1 µM.

B4: maize KAS II expressed in E. coli from pDAB388 (enzyme)
chain: MAVALQAERSVIEKKKPDIKQRRVVVTGMGVVTPLGHDPDVFYNNLLDGVSGISEIERFDCSNFPTRIAGEIKSFSTDGWVAPKLAKRMDKFMLYLITAGKKALENGGLTEELRNELDKTRCGVLIGSAMGGMKVFNDAIEALRVSYKKMNPFCVPFATTNMGSAILAMDLGWMGPNYSISTACATSNFCILNAANHIRRGEADVMLCGGSDAPLIPIGLGGFVACRALSQRNSDPTKASRPWDMGRDGFVMGEGAGVLVLEELEHAKERGATIYAEFLGGSFTCDAYHMTEPHPEGRGIALCIEKALADAGVAREEINYVNAHATSTQAGDLKEYEAIVRCFRQNPQLRVNSTKSMTGHLIGAAGGIEAVASIQAIRTGWVHPNLNLENPEDTVDVGVLVGSQKERCEVKVALSNSFGFGGHNSSILFAPFK
In the case of B4, the synthase activity: condensation of [2-14C]malonyl-CoA with C10:0-ACP to C12:0-ACP (counts per minute per minute) [5] is reported as 734 and the synthase activity: condensation of [2-14C]malonyl-CoA with C16:0-ACP to C18:0-ACP (counts per minute per minute) [6] is reported as 909.
